Results on 66 variants are retold here after the supplement of paper PMC12855868.

B1: library; numbered along this chain (parent)
chain: MAAAGGARLLRAASAVLGGPAGRWLHHAGSRAGSSGLLRNRGPGGSAEASRSLSVSARARSSSEDKITVHFINRDGETLTTKGKVGDSLLDVVVENNLDIDGFGACEGTLACSTCHLIFEDHIYEKLDAITDEENDMLDLAYGLTDRSRLGCQICLTKSMDNMTVRVPETVADARQSIDVGKTS

Variants of B1 are the subject of the data set. Description: scaled log2 fold change in cell abundance, elesclomol vs control (0 = silent mean, 1 = nonsense mean) (scaled log2 ratio); higher = higher viability under elesclomol (loss of FDX1 cuproptosis function). The settings on record: glucose 10 mM. On the procedure:
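Deep mutational scan of full-length human FDX1: a pooled saturation-mutagenesis ORF library (every residue 2-184 mutated to all 19 amino acids plus stop, and silent codons where available) was expressed by lentivirus in FDX1-knockout ABC1 (14 days) or HEK293T (11 days) cells grown with elesclomol (ES) or DMSO control. Variant abundance came from ORF sequencing. The log2 fold change (ES vs control, mean of duplicates) was centred on the silent-variant mean (0) and scaled to the nonsense-variant mean (1). Higher values mean greater viability under ES, i.e. loss of FDX1 function in cuproptosis.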

[1] abbreviates: with ABC1 FDX1 KO, elesclomol 5 nM, 14 days.
[2] abbreviates: with HEK293T FDX1 KO, elesclomol 40 nM, 11 days.
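Further: variant abundance is its share of total variant reads in each endpoint sample, from next-generation sequencing of the integrated ORF PCR-amplified out of genomic DNA.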

For R11M, the “scaled log2 fold change” value runs as follows: under setting [1], -0.24; under setting [2], 0.88.

Take R11L: the “scaled log2 fold change” value came out at 0.0826 under setting [1] and 0.444 under setting [2].

In the case of R11D, under setting [1], the “scaled log2 fold change” value was 0.509.

Take R11Q: the “scaled log2 fold change” value worked out at 0.24 under setting [1] and 0.0461 under setting [2].

Regarding R11A, the “scaled log2 fold change” value is, setting by setting: under setting [1], 0.289; under setting [2], -0.22.

In the case of R11E, the “scaled log2 fold change” value by setting is: under setting [1], -0.0252; under setting [2], -0.275.

Turning to R11S, the “scaled log2 fold change” value by setting is: under setting [1], 0.406; under setting [2], -0.404.

For the variant R11I, the “scaled log2 fold change” value by setting is: under setting [1], 0.175; under setting [2], -0.673.

On to R11N, for which the “scaled log2 fold change” value worked out at 0.137 under setting [1] and 0.131 under setting [2].

In the case of R11C, the “scaled log2 fold change” value is, setting by setting: under setting [1], 0.0344; under setting [2], -0.198.

As for R11H, the “scaled log2 fold change” value under setting [1] stood at 0.0541 and the “scaled log2 fold change” value under setting [2] is -0.696.

On to R11T, for which the “scaled log2 fold change” value runs as follows: under setting [1], 0.0343; under setting [2], -0.658.

As to R11Y, the “scaled log2 fold change” value is 0.189 under setting [1] and 0.793 under setting [2].

On to R11P, for which, under setting [1], the “scaled log2 fold change” value came out at 0.346.

On to R11F, for which the “scaled log2 fold change” value under setting [1] is 0.139 and the “scaled log2 fold change” value under setting [2] was -0.474.

With R11W, the “scaled log2 fold change” value came out at 0.0433 under setting [1] and 0.0594 under setting [2].

In the case of R11V, the “scaled log2 fold change” value is 0.177 under setting [1] and -0.49 under setting [2].

On to R11G, for which the “scaled log2 fold change” value is, setting by setting: under setting [1], 0.36; under setting [2], -0.443.

Take R23P: the “scaled log2 fold change” value is, setting by setting: under setting [1], -0.138; under setting [2], 0.465.

For the variant R23D, the “scaled log2 fold change” value under setting [1] amounted to 0.199.

Regarding R23M, the “scaled log2 fold change” value is 0.474 under setting [1] and -0.139 under setting [2].

For the variant R23T, the “scaled log2 fold change” value under setting [1] was -0.164 and the “scaled log2 fold change” value under setting [2] was -0.141.

Turning to R23S, the “scaled log2 fold change” value under setting [1] is -0.477.

For R23E, the “scaled log2 fold change” value under setting [1] amounted to 0.00775.

As for R23I, the “scaled log2 fold change” value under setting [1] worked out at 0.309.

Turning to R23N, the “scaled log2 fold change” value was 0.598 under setting [1] and -0.335 under setting [2].

R23W: the “scaled log2 fold change” value by setting is: under setting [1], 0.348; under setting [2], 0.553.

In the case of R23Y, the “scaled log2 fold change” value under setting [1] was -0.603.

Regarding R23C, the “scaled log2 fold change” value under setting [1] stood at 0.413 and the “scaled log2 fold change” value under setting [2] was determined as 0.458.

With R23K, the “scaled log2 fold change” value under setting [1] amounted to 0.498.

Regarding R23Q, the “scaled log2 fold change” value under setting [1] was 0.00392.

Consider G22M, for which the “scaled log2 fold change” value under setting [1] came out at 0.793.

For the variant G22F, the “scaled log2 fold change” value under setting [1] turned out to be 0.555.

In the case of G22Y, the “scaled log2 fold change” value was found to be 0.703 under setting [1] and 0.208 under setting [2].

On to G22L, for which, under setting [1], the “scaled log2 fold change” value was -0.306.

With G22A, the “scaled log2 fold change” value under setting [1] came out at 0.412.

As for G22C, the “scaled log2 fold change” value under setting [1] is -0.919.

Turning to G22T, the “scaled log2 fold change” value by setting is: under setting [1], -0.511; under setting [2], -0.29.

Turning to G22I, the “scaled log2 fold change” value runs as follows: under setting [1], 0.314; under setting [2], 0.699.

Consider G22V, for which, under setting [1], the “scaled log2 fold change” value was 0.245.

Regarding G22P, under setting [1], the “scaled log2 fold change” value was determined as 0.294.

Regarding G22R, under setting [1], the “scaled log2 fold change” value was -0.188.

G22K: the “scaled log2 fold change” value stood at 0.385 under setting [1] and 0.488 under setting [2].

Regarding G22E, the “scaled log2 fold change” value under setting [1] is -0.42 and the “scaled log2 fold change” value under setting [2] was -0.0922.

On to G22H, for which the “scaled log2 fold change” value came out at 0.331 under setting [1] and 0.022 under setting [2].

Regarding V16E, the “scaled log2 fold change” value under setting [1] is -0.716.

Regarding V16L, the “scaled log2 fold change” value under setting [1] came out at 0.316 and the “scaled log2 fold change” value under setting [2] is -0.316.

Consider V16N, for which the “scaled log2 fold change” value by setting is: under setting [1], -0.645; under setting [2], -0.143.

For the variant V16K, the “scaled log2 fold change” value under setting [1] worked out at 0.121 and the “scaled log2 fold change” value under setting [2] worked out at 0.118.

Turning to V16C, the “scaled log2 fold change” value runs as follows: under setting [1], 0.174; under setting [2], 0.501.

Take V16M: the “scaled log2 fold change” value worked out at 0.215 under setting [1] and 0.406 under setting [2].

Take V16I: under setting [1], the “scaled log2 fold change” value is -0.31.

Regarding V16T, the “scaled log2 fold change” value by setting is: under setting [1], 0.119; under setting [2], -0.636.

Regarding V16P, the “scaled log2 fold change” value is -0.0976 under setting [1] and 0.175 under setting [2].

As to V16D, the “scaled log2 fold change” value by setting is: under setting [1], 0.0655; under setting [2], -0.0447.

V16R: the “scaled log2 fold change” value under setting [1] was -0.0133.

As to V16Y, the “scaled log2 fold change” value is, setting by setting: under setting [1], 0.461; under setting [2], 0.705.

In the case of V16F, the “scaled log2 fold change” value by setting is: under setting [1], -0.9; under setting [2], 0.654.

For V16A, the “scaled log2 fold change” value under setting [1] is -0.668.

Turning to V16G, the “scaled log2 fold change” value runs as follows: under setting [1], -0.0956; under setting [2], 0.0318.

Consider V16S, for which the “scaled log2 fold change” value was 0.228 under setting [1] and -0.117 under setting [2].

For the variant V16W, the “scaled log2 fold change” value under setting [1] is -0.405.

For V16Q, the “scaled log2 fold change” value under setting [1] was found to be 0.575.

Regarding G18S, the “scaled log2 fold change” value was determined as 0.392 under setting [1] and 0.921 under setting [2].

On to G18F, for which the “scaled log2 fold change” value was 0.00932 under setting [1] and 0.79 under setting [2].

Take G18A: the “scaled log2 fold change” value under setting [1] is -0.164 and the “scaled log2 fold change” value under setting [2] worked out at 0.946.
